One substance from PMC3877365 can be followed below.

The target in assay [1] is BCRZFP-orfA fusion protein (walleye dermal sarcoma virus orfA protein fused to the BCR-ABL zinc finger protein) (walleye dermal sarcoma virus (WDSV)). The assay can be described thus: two-hybrid; ZFN-Y2H: bait fused to BCR-ZFP, prey fused to FokI, co-transformed into AH109 carrying the reporter pADH-Gal4-BS; growth on SD plates lacking histidine and adenine, 30°C, at least three days; colonies counted against non-selective plates; spotting of dilutions.
Sequence of BCRZFP-orfA fusion protein (walleye dermal sarcoma virus orfA protein fused to the BCR-ABL zinc finger protein) (walleye dermal sarcoma virus (WDSV)) (Q88939 whole entry, the tested form may be a part): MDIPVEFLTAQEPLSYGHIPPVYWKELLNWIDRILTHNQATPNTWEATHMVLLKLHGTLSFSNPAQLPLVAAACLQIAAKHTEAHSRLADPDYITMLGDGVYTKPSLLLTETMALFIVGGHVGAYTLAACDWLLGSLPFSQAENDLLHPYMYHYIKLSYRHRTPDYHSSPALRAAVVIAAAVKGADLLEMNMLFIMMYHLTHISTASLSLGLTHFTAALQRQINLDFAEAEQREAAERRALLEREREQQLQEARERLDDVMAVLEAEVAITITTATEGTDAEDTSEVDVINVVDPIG

Assay [2] shares this target. The assay is described as follows: two-hybrid; ZFN-Y2H, LacZ reporter: relative β-galactosidase activity (ONPG assay) of colonies in liquid medium, wild-type Gal4 (pADH-Gal4) set to 100%.

Sequence of FokI-E2F5 fusion protein (human E2F5 fused to the FokI nuclease domain) (natural protein) (Q15329 whole entry, the tested form may be a part): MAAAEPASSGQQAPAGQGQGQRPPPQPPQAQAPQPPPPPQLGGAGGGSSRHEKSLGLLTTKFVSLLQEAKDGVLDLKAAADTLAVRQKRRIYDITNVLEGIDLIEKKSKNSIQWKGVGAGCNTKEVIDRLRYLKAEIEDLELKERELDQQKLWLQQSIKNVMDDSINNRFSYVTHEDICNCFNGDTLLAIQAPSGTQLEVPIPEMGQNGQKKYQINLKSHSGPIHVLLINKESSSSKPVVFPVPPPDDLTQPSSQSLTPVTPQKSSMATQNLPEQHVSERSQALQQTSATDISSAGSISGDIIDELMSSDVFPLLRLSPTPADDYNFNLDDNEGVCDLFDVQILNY

“FokI-E2F5 fusion protein (human E2F5 fused to the FokI nuclease domain) (natural protein)” displayed a percent of transformants surviving on selective medium in assay [1] of 22.5%. The substance further returned a relative β-galactosidase activity in assay [2] of 84.3%.
